Assay results published in PMC6736072 (Nucleic Acids Research, 2019).

Target: T1, His-MAD1 (recombinant, not phosphorylated by ULK1) (human, UniProt Q9Y6D9 1-718)
T1 sequence: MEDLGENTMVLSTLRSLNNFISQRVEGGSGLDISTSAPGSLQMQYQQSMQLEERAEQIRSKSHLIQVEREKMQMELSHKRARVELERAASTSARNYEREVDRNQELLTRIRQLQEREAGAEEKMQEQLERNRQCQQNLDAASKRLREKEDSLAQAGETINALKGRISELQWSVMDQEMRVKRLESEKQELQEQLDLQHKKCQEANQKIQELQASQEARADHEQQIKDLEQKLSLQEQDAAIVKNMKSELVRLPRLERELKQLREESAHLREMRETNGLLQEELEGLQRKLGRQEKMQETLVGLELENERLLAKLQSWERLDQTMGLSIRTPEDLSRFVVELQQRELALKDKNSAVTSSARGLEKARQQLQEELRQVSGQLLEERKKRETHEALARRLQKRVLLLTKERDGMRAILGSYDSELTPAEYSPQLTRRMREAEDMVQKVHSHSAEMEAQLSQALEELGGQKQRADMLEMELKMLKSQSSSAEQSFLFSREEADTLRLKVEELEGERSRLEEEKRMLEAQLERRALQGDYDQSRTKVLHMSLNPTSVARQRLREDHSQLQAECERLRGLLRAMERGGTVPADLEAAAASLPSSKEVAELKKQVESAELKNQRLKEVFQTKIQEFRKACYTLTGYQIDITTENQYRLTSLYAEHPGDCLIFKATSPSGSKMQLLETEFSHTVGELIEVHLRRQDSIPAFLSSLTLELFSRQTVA
Assay: pull-down

- binding result: binds
B1: human FLAG-BUB1-(437-509), phosphorylated in vitro (domain or fragment)
chain: SFHTTPNTSLGMVQATPSKVQPSPTVHTKEALGFIMNMFQAPTLPDISDDKDEWQSLDQNEDAFEAQFQKNVR
